In patent US20200040059A1:

These substances were tested against PD-L1 (human) (UniProt Q9NZQ7) (assay: flow cytometry on HEK293 cells transfected with PD-L1).
Sequence of PD-L1 (human) (Q9NZQ7 19-290 limits assumed): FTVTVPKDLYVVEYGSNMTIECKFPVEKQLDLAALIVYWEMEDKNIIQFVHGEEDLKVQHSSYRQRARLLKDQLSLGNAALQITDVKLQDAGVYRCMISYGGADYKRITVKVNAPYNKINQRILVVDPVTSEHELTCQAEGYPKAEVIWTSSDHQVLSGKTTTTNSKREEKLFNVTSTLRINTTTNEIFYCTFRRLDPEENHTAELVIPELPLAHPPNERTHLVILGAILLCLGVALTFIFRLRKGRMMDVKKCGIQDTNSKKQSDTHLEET

Row | MFI at 22.2 nM [MFI] | Substance
1 | 7400 | CD80 IgV-Fc M43I/C82R (from UniProt P33681 35-141) (Fc fusion)
2 | 5090 | CD80 IgV-Fc N55D/K86M (from UniProt P33681 35-141) (Fc fusion)

Each substance was assayed against CTLA4 (human) (UniProt P16410) (assay: flow cytometry on HEK293 cells transfected with CTLA4).
Sequence of CTLA4 (human) (P16410 36-223 limits assumed): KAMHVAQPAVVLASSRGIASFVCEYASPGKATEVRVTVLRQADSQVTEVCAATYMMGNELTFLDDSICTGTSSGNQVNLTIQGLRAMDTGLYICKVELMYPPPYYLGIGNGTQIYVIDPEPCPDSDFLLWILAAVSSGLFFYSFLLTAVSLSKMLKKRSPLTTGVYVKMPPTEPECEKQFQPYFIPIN

Row | MFI at 66.6 nM [MFI] | Substance
3 | 74200 | CD80 IgV-Fc M47L/V68A (from UniProt P33681 35-141) (Fc fusion)
4 | 3640 | CD80 IgV-Fc M43I/C82R (from UniProt P33681 35-141) (Fc fusion)
5 | 3540 | CD80 IgV-Fc N55D/K86M (from UniProt P33681 35-141) (Fc fusion)

What follows are substances tested against T1, CD226 (human) (UniProt Q15762) (assay: flow cytometry, cells expressing target, 25 nM).
T1 sequence: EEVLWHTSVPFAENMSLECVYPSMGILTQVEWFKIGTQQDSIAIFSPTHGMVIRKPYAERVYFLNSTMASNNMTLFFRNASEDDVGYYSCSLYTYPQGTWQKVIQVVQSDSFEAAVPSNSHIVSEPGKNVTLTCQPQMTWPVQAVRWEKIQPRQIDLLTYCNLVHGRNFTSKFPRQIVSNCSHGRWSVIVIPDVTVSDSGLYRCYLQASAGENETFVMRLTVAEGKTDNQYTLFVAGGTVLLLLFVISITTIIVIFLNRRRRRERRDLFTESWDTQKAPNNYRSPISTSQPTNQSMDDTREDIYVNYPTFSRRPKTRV

Row | MFI at 25 nM [MFI] | Substance
6 | 744 | CD155 variant IgV-Fc P18T, T39S, S52P, S54R, L79P, F91S, T107M (from UniProt P15151 24-139) (Fc fusion)
7 | 748 | CD155 variant IgV-Fc P18T, G19D, M36T, S54N, L79P, L83Q, F91S, T107M, F108Y (from UniProt P15151 24-139) (Fc fusion)

Further lines, the substance ahead of its results:

Row | Substance | MFI at 25 nM [MFI]
8 | CD155 variant IgV-Fc P18T, M55L, T61R, L79P, F91S, V106I, T107M (from UniProt P15151 24-139) (Fc fusion) | 1910
9 | CD155 variant IgV-Fc P18F, H40Q, T61K, Q62K, L79P, F91S, L104M, T107V (from UniProt P15151 24-139) (Fc fusion) | 853
10 | CD155 variant IgV-Fc V10F, T15S, P18L, R48Q, L79P, F91S, T107M, V115M (from UniProt P15151 24-139) (Fc fusion) | 792

The substances below were run against T2, CD96 (UniProt P40200) (assay: flow cytometry, cells expressing target, 25 nM).
T2 sequence (looked up): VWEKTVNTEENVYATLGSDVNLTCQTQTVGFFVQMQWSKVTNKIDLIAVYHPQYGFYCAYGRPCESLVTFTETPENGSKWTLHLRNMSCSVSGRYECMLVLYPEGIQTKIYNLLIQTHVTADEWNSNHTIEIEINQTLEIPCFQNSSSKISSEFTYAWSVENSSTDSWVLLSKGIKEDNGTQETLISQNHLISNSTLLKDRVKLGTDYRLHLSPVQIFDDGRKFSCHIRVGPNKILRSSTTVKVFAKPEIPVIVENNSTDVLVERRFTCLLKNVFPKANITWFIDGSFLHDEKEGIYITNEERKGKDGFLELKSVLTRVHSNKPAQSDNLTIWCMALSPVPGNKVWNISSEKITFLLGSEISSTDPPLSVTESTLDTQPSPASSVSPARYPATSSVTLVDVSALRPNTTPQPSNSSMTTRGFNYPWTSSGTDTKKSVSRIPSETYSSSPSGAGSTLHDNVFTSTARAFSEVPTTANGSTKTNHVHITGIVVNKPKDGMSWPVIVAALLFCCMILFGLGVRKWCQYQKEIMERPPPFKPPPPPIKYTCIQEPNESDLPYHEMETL

Row | MFI at 25 nM [MFI] | Substance
11 | 1220 | CD155 variant IgV-Fc P18T, T39S, S52P, S54R, L79P, F91S, T107M (from UniProt P15151 24-139) (Fc fusion)
12 | 726 | CD155 variant IgV-Fc P18T, G19D, M36T, S54N, L79P, L83Q, F91S, T107M, F108Y (from UniProt P15151 24-139) (Fc fusion)

Second part, the substance before the results:

Row | Substance | MFI at 25 nM [MFI]
13 | CD155 variant IgV-Fc P18T, M55L, T61R, L79P, F91S, V106I, T107M (from UniProt P15151 24-139) (Fc fusion) | 57900
14 | CD155 variant IgV-Fc V10F, T15S, P18L, R48Q, L79P, F91S, T107M, V115M (from UniProt P15151 24-139) (Fc fusion) | 998

The substances below were run against CD112R (human) (UniProt Q6DKI7) (assay: flow cytometry, cells expressing target, 25 nM).
Sequence of CD112R (human) (Q6DKI7 whole entry): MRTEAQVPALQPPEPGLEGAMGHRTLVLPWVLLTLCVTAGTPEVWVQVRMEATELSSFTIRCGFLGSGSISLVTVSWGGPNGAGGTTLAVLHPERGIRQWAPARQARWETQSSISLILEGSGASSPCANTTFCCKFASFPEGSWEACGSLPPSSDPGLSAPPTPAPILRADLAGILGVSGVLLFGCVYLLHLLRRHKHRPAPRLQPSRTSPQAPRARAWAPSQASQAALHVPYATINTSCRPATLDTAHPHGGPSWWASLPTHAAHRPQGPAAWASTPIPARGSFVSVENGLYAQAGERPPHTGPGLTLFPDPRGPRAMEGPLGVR

Row | MFI at 25 nM [MFI] | Substance
15 | 1040 | CD155 variant IgV-Fc P18T, T39S, S52P, S54R, L79P, F91S, T107M (from UniProt P15151 24-139) (Fc fusion)
16 | 1280 | CD155 variant IgV-Fc P18T, G19D, M36T, S54N, L79P, L83Q, F91S, T107M, F108Y (from UniProt P15151 24-139) (Fc fusion)

The next lines start with the substance.

Row | Substance | MFI at 25 nM [MFI]
17 | CD155 variant IgV-Fc P18T, M55L, T61R, L79P, F91S, V106I, T107M (from UniProt P15151 24-139) (Fc fusion) | 827
18 | CD155 variant IgV-Fc P18F, H40Q, T61K, Q62K, L79P, F91S, L104M, T107V (from UniProt P15151 24-139) (Fc fusion) | 918
19 | CD155 variant IgV-Fc V10F, T15S, P18L, R48Q, L79P, F91S, T107M, V115M (from UniProt P15151 24-139) (Fc fusion) | 901

These substances were tested against T3, TIGIT (human) (UniProt Q495A1) (assay: flow cytometry, cells expressing target, 25 nM).
T3 sequence: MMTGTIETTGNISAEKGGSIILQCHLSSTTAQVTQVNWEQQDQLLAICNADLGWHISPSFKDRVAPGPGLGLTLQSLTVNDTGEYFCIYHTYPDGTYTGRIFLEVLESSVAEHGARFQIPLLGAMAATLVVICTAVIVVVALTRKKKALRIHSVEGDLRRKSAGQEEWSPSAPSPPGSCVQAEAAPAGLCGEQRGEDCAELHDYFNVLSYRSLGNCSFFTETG

Row | MFI at 25 nM [MFI] | Substance
20 | 45900 | CD155 variant IgV-Fc P18T, T39S, S52P, S54R, L79P, F91S, T107M (from UniProt P15151 24-139) (Fc fusion)
21 | 905 | CD155 variant IgV-Fc P18T, G19D, M36T, S54N, L79P, L83Q, F91S, T107M, F108Y (from UniProt P15151 24-139) (Fc fusion)

Second part, the substance before the results:

Row | Substance | MFI at 25 nM [MFI]
22 | CD155 variant IgV-Fc P18T, M55L, T61R, L79P, F91S, V106I, T107M (from UniProt P15151 24-139) (Fc fusion) | 133000
23 | CD155 variant IgV-Fc P18F, H40Q, T61K, Q62K, L79P, F91S, L104M, T107V (from UniProt P15151 24-139) (Fc fusion) | 108000
24 | CD155 variant IgV-Fc V10F, T15S, P18L, R48Q, L79P, F91S, T107M, V115M (from UniProt P15151 24-139) (Fc fusion) | 1170
